Assay results: publication PMC7026663
Values belong to the substance of their own block, whether it stands above or below them.

Key:
[1] = biological target: nucleosome core particle (NCP); test: AUC
[2] = biological target: nucleosome core particle (NCP); test: ITC
[3] = biological target: nucleosome core particle (NCP); test: native gel or EMSA
[4] = biological target: AtFKBP53 NTD (residues 1–112) (Arabidopsis thaliana) (UniProt Q93ZG9); test: AUC
[5] = biological target: GST-tagged AtFKBP53 NTD (Arabidopsis thaliana)

AtFKBP53 NTD (residues 1–112), sequence (Q93ZG9 1-112): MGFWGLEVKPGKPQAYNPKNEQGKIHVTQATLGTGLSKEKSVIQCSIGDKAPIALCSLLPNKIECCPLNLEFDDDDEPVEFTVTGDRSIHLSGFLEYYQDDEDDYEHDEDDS
AtFKBP53 NTD (residues 1–112) (Arabidopsis thaliana), sequence (Q93ZG9 1-112): as above
GST-tagged AtFKBP53 NTD (domain or fragment), sequence (Q93ZG9 whole entry, the tested form may be a part): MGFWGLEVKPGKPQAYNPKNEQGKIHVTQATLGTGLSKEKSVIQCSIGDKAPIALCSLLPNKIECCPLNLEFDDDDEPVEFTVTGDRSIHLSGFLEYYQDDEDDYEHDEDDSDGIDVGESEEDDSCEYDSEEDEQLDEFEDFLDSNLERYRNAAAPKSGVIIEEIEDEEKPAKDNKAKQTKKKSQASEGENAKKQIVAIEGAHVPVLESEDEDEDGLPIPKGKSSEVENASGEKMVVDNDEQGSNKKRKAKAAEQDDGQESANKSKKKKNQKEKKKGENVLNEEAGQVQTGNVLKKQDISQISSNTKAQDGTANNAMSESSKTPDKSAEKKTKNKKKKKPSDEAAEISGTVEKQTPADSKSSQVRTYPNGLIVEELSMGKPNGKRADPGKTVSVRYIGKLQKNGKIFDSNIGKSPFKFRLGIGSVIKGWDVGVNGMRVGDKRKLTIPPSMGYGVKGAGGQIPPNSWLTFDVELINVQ

stoichiometry N (NTD pentamers per NCP) [1]: 2
Kd1 (first site, sequential binding model) [2]: 0.18 µM
Kd2 (second site, sequential binding model) [2]: 2.72 µM
stoichiometry N (binding sites on NCP) [2]: 2
stoichiometry N (NTD pentamers per NCP) [3]: 2
Substance: AtFKBP53 NTD (residues 1–112) (from UniProt Q93ZG9 1-112) (domain or fragment)

stoichiometry N (H2A/H2B dimer per NTD pentamer) [4]: 1
Substance: H2A/H2B dimer (from UniProt P06897;P02281) (complex)

stoichiometry N (H3/H4 tetramer per NTD pentamer) [4]: 1
Substance: H3/H4 tetramer (from UniProt P84233;P62799) (complex)

stoichiometry N [5]: 2
Substance: GST-tagged AtFKBP53 NTD (domain or fragment)
